Source: article doi:10.1101/2020.08.13.249722

Target: …-Toyopearl (PTCH peptide, positive control)
Assay: equilibrium adsorption on peptide resin

Substance: tandem WW domain of Yes-Associated Protein 1 (WW-YAP), soluble recombinant human protein (domain or fragment)
- percent of the incubated protein bound: > 73%
